Assay [1] deals with EBOV GPddmuc (Ebola virus (EBOV)), Q05320. The experiment in a line: ELISA. The note with it: remark: other sources report otherwise.
The target of assay [2] is SUDV GPddmuc (Sudan virus (SUDV)), Q66814. Nature of the assay: ELISA. The note with it: remark: other sources report otherwise.

The record followed here is patent US20170334973A1.

Numbering of substitutions follows the chain as printed.

B1: FVM09 (antibody, V domains shown)
VH: EVQLVQSGAEVKRPGESLTISCKTSGYSFTDSWVAWVRQMPGKGLEWLGSIYPGDSETKYNPSFQGHVTISADKSVTTTYLKWSSLKASDTATYYCVKGSETWGQGVLVTVSS
VL: QLVLTQPASLSASPGASASLTCTFSGGINVAGYNILWYQQKAGSPPRYLLRYKSDSTKDQGSGVPSRFSGSKDASANTGILRISGLQSEDEADYYCAIGHSSGWIFGGGTRLTVL
B1: the EC50 was determined as 7070 pM in assay [1] and 7730 pM in assay [2].

B2: FVM20 (antibody, V domains shown)
VH: B1 VH with Q6E, D31G, V34I, A35S
VL: B1 VL with Q1N, L2F, V3M, P7S, N34H, L36F, K41N, A42P, T57E
For the molecule B2, the concentration for a half-maximal effect (EC50) in assay [1] turned out to be 81 pM; in assay [2], 119 pM.

B3: FVM17 (antibody, V domains shown)
VH: B1 VH with V34I, A35S, L48M, E57D, T58A, K59R, V76I, T77S
VL: B1 VL with L2A, L4V, A16T, A42P, Y48F, T57D, K58N, D59V, R67H
Turning to B3, the values for the EC50 in assay [1] and in assay [2] were 96 pM and 113 pM, respectively.

B4: FVM04 (antibody, V domains shown)
VH: EVQLVQSGGGLVQPGGSMRLSCEASGLSLSDYFMHWVRQAQGKGLEWIGLIQTKAFTYKTEYPAAVKGRFTISRDDSKNTLYLQMSSLKPEDTALYYCIAVTPDFYYWGQGVLVTVSS
VL: DVVMTQSPSFLSASVGDRVTITCRASQDITINLNWFQHKPGKAPKRLIYVASRLERGVPSRFSGSGSGTEFTLTISSLQPEDFATYYCQQYNNYPLTFGPGTKLDIKRTV
On to B4, for which the EC50 in assay [1] was determined as 149 pM; in assay [2], 164 pM.

Usually EC50 stands for the concentration needed to bring the measured effect to its halfway point. Higher therefore signals a need for much substance.
